{
  "source": "paper PMC2808462",
  "about": "(Biochemistry, 2010)",
  "proteins": {"B1": {"name": "human progesterone receptor B-isoform (PR-B), residues 1-933 (natural protein, UniProt P06401 1-933, looked up)", "chain": "MTELKAKGPRAPHVAGGPPSPEVGSPLLCRPAAGPFPGSQTSDTLPEVSAIPISLDGLLFPRPCQGQDPSDEKTQDQQSLSDVEGAYSRAEATRGAGGSSSSPPEKDSGLLDSVLDTLLAPSGPGQSQPSPPACEVTSSWCLFGPELPEDPPAAPATQRVLSPLMSRSGCKVGDSSGTAAAHKVLPRGLSPARQLLLPASESPHWSGAPVKPSPQAAAVEVEEEDGSESEESAGPLLKGKPRALGGAAAGGGAAAVPPGAAAGGVALVPKEDSRFSAPRVALVEQDAPMAPGRSPLATTVMDFIHVPILPLNHALLAARTRQLLEDESYDGGAGAASAFAPPRSSPCASSTPVAVGDFPDCAYPPDAEPKDDAYPLYSDFQPPALKIKEEEEGAEASARSPRSYLVAGANPAAFPDFPLGPPPPLPPRATPSRPGEAAVTAAPASASVSSASSSGSTLECILYKAEGAPPQQGPFAPPPCKAPGASGCLLPRDGLPSTSASAAAAGAAPALYPALGLNGLPQLGYQAAVLKEGLPQVYPPYLNYLRPDSEASQSPQYSFESLPQKICLICGDEASGCHYGVLTCGSCKVFFKRAMEGQHNYLCAGRNDCIVDKIRRKNCPACRLRKCCQAGMVLGGRKFKKFNKVRVVRALDAVALPQPVGVPNESQALSQRFTFSPGQDIQLIPPLINLLMSIEPDVIYAGHDNTKPDTSSSLLTSLNQLGERQLLSVVKWSKSLPGFRNLHIDDQITLIQYSWMSLMVFGLGWRSYKHVSGQMLYFAPDLILNEQRMKESSFYSLCLTMWQIPQEFVKLQVSQEEFLCMKVLLLLNTIPLEGLRSQTQFEEMRSSYIRELIKAIGLRQKGVVSSSQRFYQLTKLLDNLHDLVKQLHLYCLNTFIQSRALSVEFPEMMSEVIAAQLPKILAGMVKPLLFHKK"}},
  "target": "the molecule itself",
  "assay": "AUC",
  "data": [
    {"protein": "B1", "values": [
      {"measurement": "stoichiometry N", "result": 2}
    ]}
  ]
}
